These results are taken from patent US10006080B2, “High-selectivity contact activation inhibitor based on infestin-4” (OBSCHESTVO S OGRANICHENNOY OTVETSTVENNOSTYU …, priority 2013, dated 2018).

In experiment [1] the target is T1, fXIIa (Homo sapiens, UniProt P00748).
T1 construct: it can be transformed into an active protease, factor XIIa (fXIIa)
The experiment is described as follows: Chromogenic test of protease inhibition in buffer, fXIIa (substrate S-2302). The format is biochemical. To be noted: versus fXIa, fXa, aPC; Table 2. How it is done:
(§1) In order to assess selectivity of the fXIIa inhibition by the polypeptide comprising the sequence of the infestin-4 mutant MutB, its inhibitory activity in buffer solution against the purified coagulation factors was determined. The polypeptide's activity was compared with the known fXIIa inhibitors: CTI, infestin-4, infestin-4-based mutant Mut15, LCTI-III. […] The standard deviation amounted to about 50% of the average value; each value was measured by performing 2-3 repeats.
(§2) To determine the inhibition activity of such proteins as MutB, CTI, Inf4, Mut15, and LCTI-III as related to different coagulation proteases in a buffer, the chromogenic test was used: the mixture of protease and inhibitor was incubated in the wells of the plate for 15 minutes at 37° C., after which the chromogenic substrate solution was added to the mixture, and the protease activity was measured as the rate of chromogenic product formation at 37° C.
(§3) Chromogenic substrates included a p-nitroanilide group cleaved by the corresponding proteases. After cleavage of the p-nitroanilide group from the substrate molecule, the group absorption spectrum changes, and the change of concentration of such product within time can be detected at the light wavelength of 405 nm using a plate spectrophotometer. […]

Experiment [2] concerns the target fXa (Homo sapiens, UniProt P00742). In words: Chromogenic test of protease inhibition in buffer, fXa (substrate S-2765). To be noted: buffer solution, summary of Table 2. The format is biochemical. How it is done: as §1, §2, §3
The target of experiment [3] is aPC (Homo sapiens, UniProt P04070). The experiment is described as follows: Chromogenic test of protease inhibition in buffer, aPC (substrate Spectrozyme pCa). It counts as biochemical. To be noted: buffer solution, summary of Table 2. How it is done: as §1, §2, §3
In experiment [4] the test system is fibrinolysis. As to conditions: supposedly by inhibiting the tissue activator of plasminogen; cited from earlier work.

T1 sequence (P00748 373-615 limits assumed, other chains not shown): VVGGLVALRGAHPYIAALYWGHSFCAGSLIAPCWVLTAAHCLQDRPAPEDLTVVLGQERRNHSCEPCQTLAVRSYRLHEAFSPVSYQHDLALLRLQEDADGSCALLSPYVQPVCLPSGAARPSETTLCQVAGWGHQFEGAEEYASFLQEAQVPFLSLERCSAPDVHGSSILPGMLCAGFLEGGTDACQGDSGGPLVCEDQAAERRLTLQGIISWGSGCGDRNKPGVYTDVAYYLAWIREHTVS
Chain of fXa (P00742 235-488 limits assumed): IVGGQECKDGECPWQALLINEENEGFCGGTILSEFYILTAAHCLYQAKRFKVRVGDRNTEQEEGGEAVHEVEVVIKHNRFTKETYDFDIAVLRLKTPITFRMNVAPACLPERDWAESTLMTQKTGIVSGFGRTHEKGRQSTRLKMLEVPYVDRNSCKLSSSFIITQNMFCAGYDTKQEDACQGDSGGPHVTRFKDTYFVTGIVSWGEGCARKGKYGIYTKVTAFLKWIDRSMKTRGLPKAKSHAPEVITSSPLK
Chain of fXa (P00742 41-179 partner limits assumed): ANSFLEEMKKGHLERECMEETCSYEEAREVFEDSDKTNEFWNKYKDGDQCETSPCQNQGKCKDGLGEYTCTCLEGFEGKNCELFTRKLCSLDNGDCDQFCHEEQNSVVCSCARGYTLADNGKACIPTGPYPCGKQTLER
Chain of aPC (P04070 212-450 limits assumed): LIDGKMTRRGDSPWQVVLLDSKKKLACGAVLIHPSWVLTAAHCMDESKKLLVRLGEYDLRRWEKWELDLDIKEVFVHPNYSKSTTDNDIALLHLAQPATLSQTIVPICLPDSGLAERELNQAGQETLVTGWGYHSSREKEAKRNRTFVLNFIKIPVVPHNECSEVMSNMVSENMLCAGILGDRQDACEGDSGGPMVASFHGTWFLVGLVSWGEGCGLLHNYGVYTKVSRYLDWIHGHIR
Chain of aPC (P04070 43-197 partner limits assumed): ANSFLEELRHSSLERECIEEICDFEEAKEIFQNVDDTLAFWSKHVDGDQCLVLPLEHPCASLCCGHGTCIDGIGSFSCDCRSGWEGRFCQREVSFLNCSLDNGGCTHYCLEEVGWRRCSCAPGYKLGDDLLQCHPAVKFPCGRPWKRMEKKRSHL

On to “MutB: polypeptide comprising the sequence of infestin-4 mutant MutB (SEQ ID NO: 1), inhibition loop TRNFVA; high-selectivity fXIIa inhibitor (EVRNPCACTRNFVAVCGSDGKTYGNPCMLNCAAQTKVPGLKLVHEGRCQRSNVEQF; Infestin-4 mutant MutB)”, for which the “fXIIa inhibition selectivity among the said fXIIa inhibitors” value in experiment [1] is recorded as “highest”. Further, the “inhibition of fXa (in words)” value in experiment [2] is listed as “do not inhibit”.

B1: corn trypsin inhibitor (other, UniProt P01088 29-138, looked up)
chain: SAGTSCVPGWAIPHNPLPSCRWYVTSRTCGIGPRLPWPELKRRCCRELADIPAYCRCTALSILMDGAIPPGPDAQLEGRLEDLPGCPREVQRGFAATLVTEAECNLATIS
notes: Isolated from corn; also called CTI
As for B1, in experiment [3], the “inhibition of aPC (in words)” value is reported as “inhibits”. Also, in experiment [4], the effect on fibrinolysis result was “can delay fibrinolysis”.
